The target in series [1] is T1, IRP1 wild-type (Homo sapiens, UniProt P21399 1-889).
T1 sequence: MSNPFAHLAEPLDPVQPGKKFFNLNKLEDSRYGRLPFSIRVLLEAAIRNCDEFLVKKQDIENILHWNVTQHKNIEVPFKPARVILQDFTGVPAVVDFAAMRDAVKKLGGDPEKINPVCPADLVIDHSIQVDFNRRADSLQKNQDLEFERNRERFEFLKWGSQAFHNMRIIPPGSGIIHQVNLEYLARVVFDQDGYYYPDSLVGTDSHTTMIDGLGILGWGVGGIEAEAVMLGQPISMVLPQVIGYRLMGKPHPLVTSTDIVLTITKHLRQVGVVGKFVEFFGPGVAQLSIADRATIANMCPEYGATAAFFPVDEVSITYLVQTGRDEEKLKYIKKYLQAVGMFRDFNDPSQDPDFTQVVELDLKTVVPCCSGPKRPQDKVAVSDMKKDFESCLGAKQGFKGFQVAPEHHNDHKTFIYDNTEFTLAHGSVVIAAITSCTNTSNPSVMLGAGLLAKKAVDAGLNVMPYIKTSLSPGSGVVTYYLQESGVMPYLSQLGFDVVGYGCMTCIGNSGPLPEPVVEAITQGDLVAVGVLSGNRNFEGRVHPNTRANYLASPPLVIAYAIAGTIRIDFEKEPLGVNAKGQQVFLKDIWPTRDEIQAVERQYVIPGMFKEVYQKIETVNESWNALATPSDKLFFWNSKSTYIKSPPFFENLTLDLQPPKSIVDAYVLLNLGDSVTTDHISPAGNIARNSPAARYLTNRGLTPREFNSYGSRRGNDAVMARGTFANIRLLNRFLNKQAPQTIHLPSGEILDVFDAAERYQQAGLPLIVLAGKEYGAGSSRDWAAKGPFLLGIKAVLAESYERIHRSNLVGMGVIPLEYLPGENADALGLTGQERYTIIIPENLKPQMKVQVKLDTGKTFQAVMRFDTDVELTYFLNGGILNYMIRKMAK
The experiment in a line: EMSA. (Mobility shift assays separate free from complexed probe on a gel.)

Series [2] has as its target T1, IRP1 wild-type. The experiment in a line: EMSA. The source holds these as a separate data set.

As a reminder, the Kd is the concentration at which binding is half-saturated. Higher therefore signals weaker binding. UUUUUGUUUCCUGCUUCAACAGUGCUUGGACGGAAC (structured_RNA) [wt-IRE (FTH-IRE)] returned a Kd in the series with IRP1 wild-type [1] of 0.018 ± 0.005 µM.

Consider UUUUUGUUUCCUGCUUCAAAGUGCUUGGACGGAAC (structured_RNA) [IRE-ΔC], for which the binding signal with IRP1 wild-type [2] is ~5 fold unbound RNA fraction vs wt-IRE.

The record behind these values is PMC7003851.
